Patent US20230331836A1 (SUZHOU TRANSCENTA THERAPEUTICS, published 2023)

B1: 69H2 (antibody, mouse IgG1, kappa, V domains shown)
VH: QVQLQQSGPELMKPGASLQISCKASGYFFTTYYIHWVKQRPGQGLEWIGWIYPRGGNTVYNEKFKGKATLTSDTSSSTAYMQLSSLTSEDSAVYYCAINYRSTFGYWGQGTLVTVSA
VL: DVLMTQTPLSLPVSLGDQASISCRSSQNIVHSNGNTYLEWYLQKPGQSPKLLIYKISNRFSGVPDRFSGSGSGTDFTLKISRVEAEDLGVYYCFQGSHVPFTFGSGTKLEIKR
notes: Mouse antibody; the recombinant form is VH/VL fused to mouse IgG1 / kappa constant regions; also called 69H2F7E6; 69H2D3B1
B2: 14G11 (antibody, mouse IgG1, kappa, V domains shown)
VH: QVQLQQSGPELVRPGASVKISCKASGYRFTRNYFHWVKQRPGQGLEWIGWIYPGGFDIEYSEKFKGKATLTTDTSSSTAYMLLTSLTSEDSAVYYCAINYGSTFGYWGQGTLVTVSV
VL: DVLMTQTPLSLPVSLGDQASISCRSSQNIVHSNGNTYLEWYLQRPGQSPKLLIYKVSNRFSGVPDRFSGSGSGTDFTLKINRVEAEDLGVYYCFQGSHVPFTFGSGTKLEIKR
notes: Mouse antibody; the recombinant form is VH/VL fused to mouse IgG1 / kappa constant regions; also called 14G11G2D2; 14G11A4E1
B3: GC182 (antibody, V domains shown)
VH: QIQLVQSGPELKKFGETVKISCKASGYTFTDYSIHWVKQAPGKGLKWMGWINTETGVPTYADDFKGRFAFSLETSASTAYLQINNLKNEDTATYFCARRTGFDYWGQGTTLTVSS
VL: DIVMTQAAFSIPVTLGTSASISCRSSKNLLHSDGITYLYWYLQRPGQSPQLLIYRVSNLASGVPNRFSGSESGTDFTLRISRVEAEDVGVYYCVQVLELPFTFGGGTKLEIK
notes: also called anti-CLDN18.2 antibody GC182

Experiments:
[1] = biological target: T1, Human recombinant CLDN18.2 (N-6His) variant (human); experiment: BLI (ForteBio Octet RED 96), His-tagged antigen on Ni-NTA sensors, antibody 50 and 25 nM in solution, 30 C
T1 construct: Bought fusion polypeptide; also called recombinant hCLDN18.2 variant protein; Novoprotein NC101
T1 chain: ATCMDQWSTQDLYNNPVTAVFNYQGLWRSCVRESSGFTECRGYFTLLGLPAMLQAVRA
Procedure: (§1) 100 nM human recombinant CLDN18.2 (N-6His) (Novoprotein, NC101) protein in 1×Kinetics Buffer ((PBS+0.1% BSA+0.02% Tween20) were loaded onto pre-wet Ni-NTA biosensors (PALL, 18-5101) for 200s. After equilibrated in 1×Kinetics Buffer as baseline (60s), the sensor was immersed into serial diluted antibodies (50 nM, 25 nM) with 1×Kinetics Buffer respectively and incubated for 200s to determine the association (kon), followed by dissociation in 1×Kinetics Buffer for 200s (koff). The biosensors are regenerated for 5s in Regeneration Buffer, followed by neutralization for 5s in Neutralization Buffer for 3 times. All procedure were performed at 30° C. with Octet RED 96 (PALL). The binding affinity KD was calculated and analyzed using the ratio of koff to kon. (FIG. 6).

human CLDN18.1 [2] = biological target: T2, human CLDN18.1 (human, UniProt P56856 1-261); experiment: ICC on FFPE HEK293-CLDN18.1 cell block sections; clone 69H2F7E6; '-' = negative staining
T2 construct: also called hCLDN18.1
T2 sequence: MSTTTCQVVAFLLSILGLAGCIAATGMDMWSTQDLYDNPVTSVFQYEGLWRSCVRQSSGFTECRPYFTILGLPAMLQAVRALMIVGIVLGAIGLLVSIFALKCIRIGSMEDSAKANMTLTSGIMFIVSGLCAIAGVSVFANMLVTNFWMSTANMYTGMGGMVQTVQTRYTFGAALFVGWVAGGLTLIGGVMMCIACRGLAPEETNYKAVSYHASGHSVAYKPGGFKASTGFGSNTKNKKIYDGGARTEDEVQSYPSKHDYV

[3] = biological target: T3, hCLDN18.2 peptide (amino acid residues 28-37 of hCLDN18.2) (human); experiment: ELISA: hCLDN18.2 peptide (aa 28-37) coated on the plate at 1 ug/ml, antibody dilution series up to 150 ng/mL, detection with goat anti-mouse IgG-HRP, OD450-OD620
T3 construct: Synthesised by Sangon Biotech; coated on ELISA plates; also called antigen peptide; hCLDN18.2 Peptide (aa28-37)
T3 peptide: DQWSTQDLYN
Procedure: (§2) 1 μg/ml of peptide ([…]) was coated onto the high-binding clear polystyrene 96 well plates and blocked with blocking buffer. Serial diluted antibodies (from 150 to 0.0732 ng/ml) in blocking buffer were then added and incubated for 1.5 hrs at room temperature. The plate was washed 6 times using washing buffer and then 100 μl/well Goat pAb to Ms IgG(HRP) was added for incubation at room temperature for 1.5 hr. After washing with washing buffer, TMB was added to react with HRP on the plate. Then OD450 nm of the plate was read by SpectraMax i3x (Molecular Devices). 14G11G2D2 and 69H2F7E6 can specifically bind with the peptide with high affinity while GC182 can not recognize the epitope in the linear peptide. (FIG. 3)

[4] = biological target: T1, Human recombinant CLDN18.2 (N-6His) …; experiment: BLI (ForteBio Octet RED 96): His-tagged recombinant hCLDN18.2 variant loaded on Ni-NTA biosensors, antibody in solution at 50 nM and 25 nM
Procedure: as §1

[5] = biological target: T1, Human recombinant CLDN18.2 (N-6His) …; experiment: ELISA on coated recombinant CLDN18.2 (N-6His) variant (1 µg/ml)
Procedure: 1 μg/ml of human recombinant CLDN18.2 (N-6His) variant or human recombinant CLDN18.1 (N-8His) variant (100 μL/well) was coated onto the high-binding clear polystyrene 96 well plates and blocked with blocking buffer. Serial diluted antibodies (from 100 to 0.0244 ng/ml) in blocking buffer were added and incubated for 1.5 hrs at room temperature. The plate was washed 6 times using washing buffer (PBS+0.1% Tween) washer and then 100 μl/well Goat pAb to Ms IgG (HRP) was added for incubation at RT for 1.5 hr. After washing with washing buffer, TMB was added to react with RP on the plate. Then OD450 nm of the plate was read by SpectraMax i3x (Molecular Devices).

human CLDN18.1 [6] = biological target: T2, human CLDN18.1; experiment: ICC on FFPE HEK293-CLDN18.1 cell block sections; clone 14G11F5E1; '-' = negative staining
[7] = biological target: T3, hCLDN18.2 peptide (amino acid residues …); experiment: ELISA on coated peptide
Procedure: as §2

Row | Binder | Kd [1] [nM] | binding result (human CLDN18.1 [2]) | EC50 [3] [µg/mL] | koff [4] [s⁻¹] | kon [4] [M⁻¹ s⁻¹] | EC50 [5] [µg/mL] | binding result (human CLDN18.1 [6]) | binding result [7]
1 | B1 | 1.48 | no binding (tested: 1 nM) | 0.0143 | 0.000695 | 471000 | 0.0139 | – | –
2 | B2 | 0.213 | – | 0.027 | 0.000111 | 522000 | 0.0127 | no binding (tested: 0.5 nM) | –
3 | B3 | – | – | – | – | – | – | – | no binding (tested: 150 ng/ml (highest concentration tested))
